This is an account of results in US20120034651A1 (JAPAN SCIENCE AND TECHNOLOGY AGENCY, published 2012).

This series concerns the molecule itself. The series can be described thus: not described in this filing.

B1: 36-38A TCL1 (other, human, UniProt P56279 1-114, looked up)
chain: MAECPTLGEAVTDHPDRLWAWEKFVYLDEKQHAWLAAAIEIKDRLQLRVLLRREDVVLGRPMTPTQIGPSLLPIMWQLYPDGRYRSSDSSFWRLVYHIKIDGVEDMLLELLPDD
B1: the binding result is listed as “no binding”.
